Biological target: the molecule itself
Assay: Thioflavin T amyloid formation assay

B1: His-Lsm4^1–170 (domain or fragment)
chain: MLPLYLLTNAKGQQMQIELKNGEIIQGILTNVDNWMNLTLSNVTEYSEESAINSEDNAESSKAVKLNEIYIRGTFIKFIKLQDNIIDKVKQQINSNNNSNSNGPGHKRYYNNRDSNNNRGNYNRRNNNNGNSNRRPYSQNRQYNNSNSSNINNSINSINSNNQNMNNGLG
binding result: binds
